Test results from PMC3198426.

Molecular target: HAVI-Fluc-bJun (basic leucine zipper region of Jun, 225-334) (human)
Experiment: pull-down; DLR-PD (dual luciferase reporter pull-down): both proteins co-expressed in HEK293; lysate in passive lysis buffer on Streptavidin MagneSphere Paramagnetic Particles in PBS, 30 m to 1 h, room temperature; two washes PBS with 1% Nonidet P 40, one with PBS; the biotinylated HAVI-tagged protein is held, Fluc and Rluc activity read on the beads; in some samples eYFP-MAVS or other activators (IRF3) or HCV NS3/4A (MAVS) co-expressed

HAVI-Fluc-bJun (basic leucine zipper region of Jun, 225-334) (human), sequence (P05412 whole entry): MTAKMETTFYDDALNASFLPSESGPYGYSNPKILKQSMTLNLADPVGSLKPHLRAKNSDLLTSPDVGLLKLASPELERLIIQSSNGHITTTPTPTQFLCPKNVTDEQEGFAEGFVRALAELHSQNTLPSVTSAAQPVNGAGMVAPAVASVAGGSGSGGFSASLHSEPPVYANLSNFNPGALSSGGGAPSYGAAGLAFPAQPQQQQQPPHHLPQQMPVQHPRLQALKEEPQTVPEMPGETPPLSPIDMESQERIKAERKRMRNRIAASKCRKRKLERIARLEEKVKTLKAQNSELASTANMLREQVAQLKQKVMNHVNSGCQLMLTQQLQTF
Rluc-bFos-Flag (basic leucine zipper region of Fos, 118-220), sequence (P01100 other isoform, or with tags, fused parts or gaps): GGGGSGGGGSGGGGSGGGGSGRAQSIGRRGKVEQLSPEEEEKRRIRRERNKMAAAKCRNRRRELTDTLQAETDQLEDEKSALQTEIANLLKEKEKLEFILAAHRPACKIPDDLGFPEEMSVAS

Substance “Rluc-bFos-Flag (basic leucine zipper region of Fos, 118-220) (from UniProt P01100 118-220) (domain or fragment)” has an activity ratio of Rluc/Fluc on the beads (Rluc/Fluc activity ratio) of 1.7, a fold of the percentage of Rluc on beads over the three negative controls of over 80 fold and a molar ratio of Rluc-bFos to HAVI-Fluc-bJun binding to the beads of 0.1 molar ratio. It also gave a percentage of Rluc on beads to lysate of 4%.
